Key:
[1] = target: T1, SARS-CoV-2 spike RBD (WT) (Severe acute respiratory syndrome …, UniProt P0DTC2); assay: ELISA; design: unit not given here
[2] = target: T1, SARS-CoV-2 spike RBD (WT); assay: BLI

B1: D101 (antibody, V domains shown)
VH: EVQLVESGGGLVQPGGSLRLSCAASGFTFSNYDMHWVRQATGKGLEWVSTIGTVGDTYYPGSVKGRFTISRENAKNSLYLQMNSLRAGDTAVYYCARGGGMTTVTLDVWGQGTTVTVSS
VL: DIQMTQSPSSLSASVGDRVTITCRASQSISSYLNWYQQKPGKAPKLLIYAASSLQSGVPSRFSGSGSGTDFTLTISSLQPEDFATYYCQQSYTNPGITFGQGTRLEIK
**Q.** B1 was tested. Which binding score [1] did it give?
**A.** The binding score was 8.93.

**Q.** What about the Kd [2] of the same binder?
**A.** The Kd was 46.9 nM.

B2: D146 (antibody, V domains shown)
VH: QVQLVESGGGVVQPGRSLRLSCAASGFTFSSYGMHWVRQAPGKGLEWVAVISYDGSNKYYADSVKGRFTISRDNSKNTLYLQMNSLRAEDTAVYYCAKSLGSYCSSTSCYGGSFDYWGQGTLVTVSS
VL: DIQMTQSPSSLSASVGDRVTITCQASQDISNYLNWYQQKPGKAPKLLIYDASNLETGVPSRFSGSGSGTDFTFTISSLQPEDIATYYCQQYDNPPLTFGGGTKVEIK
**Q.** For B2, which binding score [1] is on record?
**A.** Its binding score is 574.

**Q.** What about the Kd [2] of the same binder?
**A.** Its Kd is 98.1 nM.

B3: D048 (antibody, V domains shown)
VH: QLQLQESGPGLVKPSETLSLTCTVSGGSISSSSYYWGWIRQPPGKGLELIGTIYYSGSTYYNPSLKSRVTISVDTSKNQFSLKLSSVTAADTAVYYCARKGPYYYDRSGYYRPGPIDYWGQGTLVTVSS
VL: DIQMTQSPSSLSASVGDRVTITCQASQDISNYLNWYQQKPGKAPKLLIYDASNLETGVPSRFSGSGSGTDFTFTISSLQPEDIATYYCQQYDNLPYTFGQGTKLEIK
**Q.** Which binding score [1] does the source give for B3 here?
**A.** The binding score was 4.6.

**Q.** And the Kd [2]?
**A.** The Kd was 23.4 nM.

B4: D041 (antibody, V domains shown)
VH: EVQLVQSGAEVKKPGESLKISCKGSGYSFTSYWIGWVRQMPGKGLEWMGIIYPGDSDTRYSPSFQGQVTISADKSISTAYLQWSSLKASDTAMYYCARHPTVTGWFDPWGQGTLVTVSS
VL: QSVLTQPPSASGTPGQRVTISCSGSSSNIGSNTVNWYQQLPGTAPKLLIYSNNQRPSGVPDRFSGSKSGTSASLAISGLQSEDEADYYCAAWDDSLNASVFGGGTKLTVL
**Q.** With B4 as the binder, how does the binding score [1] read?
**A.** Its binding score is 33.

**Q.** What about the Kd [2] of the same binder?
**A.** The Kd was 13.2 nM.

B5: D008 (antibody, V domains shown)
VH: QVQLVESGGGVVQPGRSLRLSCAASGFTFRSYGMHWVRQAPGKGLEWVAVISYDGSTKYYADSVKGRFTISRDNSKNTLYLQMNSLRAEDTAVYYCAKGGYYYDSNTYYVYWGQGTLVTVSS
VL: DIQMTQSPSSLSASVGDRVTITCQASQDISNHLNWYQQKPGKAPKLLIYDASNLETGVPSRFSGSGSGTDFTFTISSLQPEDIATYYCQQYDNLPPITFGQGTRLEIK
**Q.** How did the binding score [1] turn out when B5 was run?
**A.** The binding score was 12.4.

**Q.** And the Kd [2]?
**A.** Its Kd is 10.5 nM.

B6: D138 (antibody, V domains shown)
VH: QVQLVESGGGVVQPGRSLRLSCAASGFTFSSYGMHWVRQAPGKGLEWVAVISYDGSNKYYADSVKGRFTISRDNSKNTLYLQMNSLRAEDTAVYYCAKRAPYYYGPGGIDYWGQGTLVTVSS
VL: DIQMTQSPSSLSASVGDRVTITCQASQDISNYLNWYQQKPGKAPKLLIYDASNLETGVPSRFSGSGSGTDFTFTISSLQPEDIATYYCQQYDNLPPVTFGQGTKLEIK
**Q.** What does the source list for B6?
**A.** binding score [1]: 368; Kd [2]: 201 nM

B7: D068 (antibody, V domains shown)
VH: EVQLVESGGGLVKPGGSLRLSCAASGFTFSSYSMNWVRQAPGKGLEWVSSISSSSSYIYYADSVKGRFTISRDNAKNSLYLQMNSLRAEDTAVYYCARVDSSGWYTGDAFDIWGQGTMVTVSS
VL: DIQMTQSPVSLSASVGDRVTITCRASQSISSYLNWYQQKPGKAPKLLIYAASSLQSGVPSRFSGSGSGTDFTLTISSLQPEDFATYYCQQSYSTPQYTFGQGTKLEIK
**Q.** Which results are given for B7?
**A.** binding score [1]: 286; Kd [2]: 196 nM

B8: C2728 (antibody, V domains shown)
VH: QVQLVESGGGVVQPGRSLRLSCAASGFTFSSYGMHWVRQAPGKGLEWVAVIWYDGSNKYYADSVKGRFTISRDNSKNTLYLQMNSLRAEDTAVYYCARERPHPSITMIVPNNYGMDVWGQGTTVTVSS
VL: not shown
**Q.** B8 was tested. Which binding score [1] did it give?
**A.** Its binding score is 132.

**Q.** And the Kd [2]?
**A.** The Kd was 536 nM.

B9: C2708 (antibody, V domains shown)
VH: EVQLVESGGVVVQPGGSLRLSCAASGFTFDDYAMHWVRQAPGKGLEWVSLISWDGGSTYYADSVKGRFTISRDNSKNSLYLQMNSLRAEDTALYYCAKDIEGGSGWSFDYWGQGTLVTVSS
VL: QSALTQPPSVSGSPGQSVTISCTGTSSDVGSYNRVSWYQQPPGTAPKLMIYEVSNRPSGVPDRFSGSKSGNTASLTISGLQAEDEADYYCSSYTSSSTVVFGGGTKLTVL
**Q.** With B9 as the binder, how does the binding score [1] read?
**A.** The binding score was 7040.

**Q.** What about the Kd [2] of the same binder?
**A.** The Kd was 597 nM.

B10: C2709 (antibody, V domains shown)
VH: EVQLVESGGGLVQPGGSLRLSCAASGFTVSSNYMSWVRQAPGKGLEWVSVIYSGGSTYYADSVKGRFTISRDNSKNTLYLQMNSLRAEDTAVYYCARDNEHYGSGSLTLDYWGQGTLVTVSS
VL: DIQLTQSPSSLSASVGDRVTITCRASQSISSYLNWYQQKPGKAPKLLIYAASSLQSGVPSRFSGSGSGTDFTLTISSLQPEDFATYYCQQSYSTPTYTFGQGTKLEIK
**Q.** What does the source list for B10?
**A.** binding score [1]: 5050; Kd [2]: 115 nM

B11: D125 (antibody, V domains shown)
VH: QVQLQESGPGLVKPSETLSLTCSVSGVSISSYYWSWIRQPPGKGLEWIGYIYYSGSTNYNPSLKSRVTISVDTSKNQFSLKLSSVTAADTAVYYCARVVGDGYNFGYYYYMDVWGKGTTVTVSS
VL: QSVLTQPPSVSAAPGQKVTISCSGSSSNIGNNYVSWYQQLPGTAPKLLIYENNKRPSGIPDRFSGSKSGTSATLGITGLQTGDEADYYCGTWDSSLSAYVFGTGTKVTVL
**Q.** Which results are given for B11?
**A.** binding score [1]: 575; Kd [2]: 103 nM

B12: D067 (antibody, V domains shown)
VH: EVQLVESGGGLVQPGGSLRLSCAASGFIFSGYDMHWVRQAPGKGLEWVSAIGTAGDTYYPGSVKGRFILSRENAKNSLYLQMNSLRAGDTAVYYCARALYRFGELLGYDYWGQGTLVTVSS
VL: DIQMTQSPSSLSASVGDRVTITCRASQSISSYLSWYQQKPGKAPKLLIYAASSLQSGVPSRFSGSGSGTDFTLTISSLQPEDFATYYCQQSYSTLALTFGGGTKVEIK
**Q.** What does the source list for B12?
**A.** binding score [1]: 352; Kd [2]: 183 nM

B13: D045 (antibody, V domains shown)
VH: EVQLVESGGGLVQPGGSLRLSCAASGFTFSSYSMNWVRQAPGKGLEWVSYISSSSSTIYYADSVKGRFTISRDNAKNSLYLQMNSLRDEDTAVYYCARHYGSGSSYYYYGMDVWGQGTTVTVSS
VL: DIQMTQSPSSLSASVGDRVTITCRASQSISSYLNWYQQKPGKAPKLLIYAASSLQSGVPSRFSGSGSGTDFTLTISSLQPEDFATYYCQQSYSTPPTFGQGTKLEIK
**Q.** For B13, which binding score [1] is on record?
**A.** The binding score was 15.7.

**Q.** What about the Kd [2] of the same binder?
**A.** Its Kd is 61.1 nM.

B14: D013 (antibody, V domains shown)
VH: QVQLVQSGAEVKKPGASVRISCKTSGYIFAYYFIHWFRQAPGQGPEWMGWINPKSGGTNYAQKFQDRVTMTTDSSITTAFMALRSLRSDDTAVYYCTREGVGTISDAGFGYWGQGTPVTVSS
VL: SYVLTQPPSVSVAPGKTATITCGGNNIGSKSVHWYHQKPGQAPVMVVYNDKERPSGIPERFSGSKSGNTATLTITWVEADDEADYYCQAWDRPSGYVFGTGTKVTVL
**Q.** Which results are given for B14?
**A.** binding score [1]: 1330; Kd [2]: 338 nM

B15: D066 (antibody, V domains shown)
VH: QVQLVQSGAEVKKPGASVKVSCKASEYTFTNYYMHWVRQAPGQGLEWMGIINPSAGSTSYAQKFQGRVRMTSDTSTNTVYMELSSLRSEDTAVYYCARGVLVPAAEYYFDYWGQGTLVTVSS
VL: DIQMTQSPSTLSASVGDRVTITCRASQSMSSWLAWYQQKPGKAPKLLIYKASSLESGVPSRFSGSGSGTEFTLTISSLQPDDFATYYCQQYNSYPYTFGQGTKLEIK
**Q.** How did the binding score [1] turn out when B15 was run?
**A.** Its binding score is 11.9.

**Q.** And the Kd [2]?
**A.** The Kd was 7.6 nM.

B16: D144 (antibody, V domains shown)
VH: EVQLVESGGGLVQPGGSLRLSCAASGFTFSSYWMHWVRQAPGKGLVWVSRINSDGSSTSYADSVKGRFTISRDNAKNTLYLQMNSLRAEDTAVYYCARVPDTAMVTGINYYYYYGMDVWGQGTTVTVSS
VL: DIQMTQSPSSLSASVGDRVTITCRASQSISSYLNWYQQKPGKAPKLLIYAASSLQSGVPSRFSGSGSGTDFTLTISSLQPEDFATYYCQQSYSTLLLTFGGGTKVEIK
**Q.** For B16, which binding score [1] is on record?
**A.** Its binding score is 24.8.

**Q.** What about the Kd [2] of the same binder?
**A.** Its Kd is 19.2 nM.

B17: C2705 (antibody, V domains shown)
VH: EVQLVQSGAEVKKPGESLKISCKGSGYSFTSYWIGWVRQMPGKGLEWMGIIYPGDSDTRYSPSFQGQVTISADKSISTAYLQWSSLKASDTAMYYCARPVVTDYWYFDLWGRGTLVTVSS
VL: not shown
**Q.** What does the source list for B17?
**A.** binding score [1]: 867; Kd [2]: 14 nM

B18: D124 (antibody, V domains shown)
VH: QVQLQQWGAGLLKPSETLSLTCAVYGGPFTGYSWTWIRQSPGKGLEWIGEINHSGSTSYNPSLQSRVTFSIDTSKNQFSLELSSVTAADTAVYFCARGNRNRYHTSDWYYYGMDVWGQGTTVTVSS
VL: DIQMTQSPSSLSAYVGDRVTITCRASQGINTYLAWYQQKPGKVPRLLIYGASTLQSGVPSRFSGSGSGTEFTLTISSLQPEDIATYYCQKYNSAPRTFGQGTKVEIK
**Q.** How did the binding score [1] turn out when B18 was run?
**A.** Its binding score is 2540.

**Q.** And the Kd [2]?
**A.** The Kd was 219 nM.

B19: C2723 (antibody, V domains shown)
VH: QVQLQESGPGLVKPSETLSLTCTVSGGSVSSGSYYWSWIRQPPGKGLEWIGYIYYSGSTNYNPSLKSRVTISVDTSKNQFSLKLSSVTAADTAVYYCARGALYDSSGYYPELPVYWGQGTLVTVSS
VL: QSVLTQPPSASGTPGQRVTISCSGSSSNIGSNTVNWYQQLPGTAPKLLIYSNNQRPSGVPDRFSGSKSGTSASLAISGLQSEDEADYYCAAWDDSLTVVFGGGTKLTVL
**Q.** B19 was tested. Which binding score [1] did it give?
**A.** The binding score was 39.7.

**Q.** What about the Kd [2] of the same binder?
**A.** The Kd was 20.9 nM.

B20: D063 (antibody, V domains shown)
VH: EVQLVQSGAEVKKPGESLKISCKGSGYSFTSYWIGWVRQMPGKGLEWMGIIYPGDSDTSPSFQGQVTISADKSISTAYLQWSSLKASDTAMYYCARVLNWNLGDYWGQGTLVTVSS
VL: not shown
**Q.** B20 was tested. Which binding score [1] did it give?
**A.** Its binding score is 9040.

**Q.** What about the Kd [2] of the same binder?
**A.** The Kd was 94.8 nM.

B21: C2739 (antibody, V domains shown)
VH: EVQLVESGGGLVQPGGSLRLSCAASGFTFSSYWMSWVRQAPGKGLEWVANIKKDGSEKYYVDSVKGRFTISRDNDKNSLYLQMNSLRAEDTAVYYCARKKYYYGDFDYWGQGTLVTVSS
VL: NFMLTQPHSVSESPGKTVTISCTRSSGSIASNYVQWYQQRPGSSPTTVIYEDNQRPSGVPDRFSGSIDSSSNSASLTISGLKTEDEADYYCQSYDSIIREVFGGGTKLTVL
**Q.** For B21, which binding score [1] is on record?
**A.** The binding score was 52.3.

**Q.** And the Kd [2]?
**A.** Its Kd is 287 nM.

B22: C2704 (antibody, V domains shown)
VH: EVQLVESGGDLVQPGGSLRLSCAASGFTFSTSWMHWVRQAPGKGLVWVSHINGDGSTTIYADSVKGRFTISRDNAKNTLYLQMNTLRAEDTAVYYCARNTGTHFDYWGQGTLVTVSS
VL: QSALTQPASVSGSPGQSITISCTGTSSDVGRYNYVSWYQQHPGKAPKVMIYDVSNRPSGVSNRFSGSKSGNTASLTISGLQAEDEADYYCSSYTSSSPWVFGGGTKLTVL
**Q.** B22 was tested. Which binding score [1] did it give?
**A.** Its binding score is 410.

**Q.** What about the Kd [2] of the same binder?
**A.** Its Kd is 205 nM.

B23: C2716 (antibody, V domains shown)
VH: EVQLVESGGGLIQPGGSLRLSCAASGFIVSSNYMSWVRQAPGKGLEWVSVIYSGGSTYYADSVKGRFTISRDNSKNTLYLQMNSLRAEDTAVYYCARDLGSYGHFDYWGQGTLVTVSS
VL: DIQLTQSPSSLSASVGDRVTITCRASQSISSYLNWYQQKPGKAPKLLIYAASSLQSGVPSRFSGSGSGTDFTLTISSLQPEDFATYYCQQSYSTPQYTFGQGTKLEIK
**Q.** For B23, which binding score [1] is on record?
**A.** The binding score was 1100.

**Q.** And the Kd [2]?
**A.** The Kd was 370 nM.

B24: D025 (antibody, V domains shown)
VH: QVQLVESGGGVVQPGRSLRLSCAASGFTFSSYGMHWVRQAPGKGLEWVAVISYDGSNKYYADSVKGRFTISRDNSKNTLYLQMNSLRAEDTAVYYCAKRGQGYCGGDCFSGYFDYWGQGTLVTVSS
VL: not shown
**Q.** Which results are given for B24?
**A.** binding score [1]: > 10000; Kd [2]: 172 nM

B25: D006 (antibody, V domains shown)
VH: EVQLVQSGAEVKKPGESLKISCKGSGYSFTSYWIGWVRQMPGKGLEWMGIIYPGDSDTRYSPSFQGQVTISADKSISTAYLQWSSLKASDTAMYYCASFGRNDAFDIWGQGTMVTVSS
VL: not shown
**Q.** For B25, which binding score [1] is on record?
**A.** Its binding score is 41.6.

**Q.** And the Kd [2]?
**A.** Its Kd is 8.76 nM.

B26: C2690 (antibody, V domains shown)
VH: EVQLVESGGGVVQPGRSLRVSCAASGFTFSSYGMHWVRQAPGKGLEWVAVISYDGSNKYYADSVKGRFSISRDNSKNTLYLQMNSLRAEDTAVYYCAKVISSFGGGSLNYFDYWGQGTLVTVSS
VL: AIRMTQSPSSLSASVGDRVTITCQASQDISNYLNWYQQKPGKAPKLLIYDASNLETGVPSRFSGSGSGTDFTFTISSLQPEDIATYYCQQYDNLPITFGQGTRLEIK
**Q.** How did the binding score [1] turn out when B26 was run?
**A.** Its binding score is 381.

**Q.** And the Kd [2]?
**A.** The Kd was 103 nM.

— PMC9876794 (2022)
